Data reported in PMC3834327, “N ^6-Substituted AMPs Inhibit Mammalian Deoxynucleotide N-Hydrolase DNPH1” (PLoS ONE, 2013).

Substrate: Nc1nc2c(ncn2[C@H]2C[C@H](O)[C@@H](COP(=O)(O)O)O2)c(=O)[nH]1
Test: purified protein, by the assay type
Details: other: substrate of human DNPH1; double reciprocal plots, five concentrations; pH 7.0

B1: human DNPH1 (Homo sapiens) (protein)
chain: MAAAMVPGRSESWERGEPGRPALYFCGSIRGGREDRTLYERIVSRLRRFGTVLTEHVAAAELGARGEEAAGGDRLIHEQDLEWLQQADVVVAEVTQPSLGVGYELGRAVAFNKRILCLFRPQSGRVLSAMIRGAADGSRFQVWDYEEGEVEALLDRYFEADPPGQVAASPDPTT
  Km: 57 ± 12 µM
  kcat: 0.002 s⁻¹
  kcat/Km: 35 M⁻¹ s⁻¹
